# Measurements published in article PMC10885436, “A novel AA14 LPMO from Talaromyces rugulosus with bifunctional cellulolytic/hemicellulolytic activity boosted cellulose hydrolysis” (Biotechnology for Biofuels and Bioproducts, 2024).
# Substrate: COc1cccc(OC)c1O
# Assay: purified protein
# Format: biochemical, Talaromyces rugulosus
# Conditions: co-substrate H2O2 fixed at 100 uM (below its Km, authors call kinetics insufficient), Cu(II)-saturated enzyme, 100 mM sodium phosphate pH 7.0, 37 C
protein,measurement,value
"TrAA14A (Talaromyces rugulosus) (protein, about 60 kDa glycosylated, about 30 kDa after Endo H; no dCTR) HVVAWHPGMYCLGGNDTSVDDPNTNLAVNPLWDLPKSKWWFQADRGCDKAPPVDGVFLELPAGQNFTTELAHNRAQTTLSFNGQYAGEWPDGKDHPEDWSGTGTPPGCIQDDGAIHTNNQTMAGGTVFAISYQSDMSQVTMENLVVFSVLEHTPWKRIATYEVPADLPPCPDAGCICAWGWVPQGCGEPNMYMAGYKCKVTGSSSTKQLAQAQVPKYCANDTSECVGGAKQILVMNQADGNNVVAPDNDFVAYNEKWGFQNGAQNDIFM",Km,790 µM
same,kcat,1.32 s⁻¹
